From patent US20140289906A1, “Compositions Having Dicamba Decarboxylase Activity and Methods of Use” (priority 2013, published 2014)
Substitutions are numbered along the chain they refer to.

B1: 123 (protein)
chain: MAQGKVALEEHFAIPETLQDSAGFVPGDYWKELQHRLLDIQDTRLKLMDAHGIETMILSLAAPAVQAIPDRRKAIEIARRANDVLAEECAKRPDRFLAFAALPLQDPDAATEELQRCVNDLGFVGALVNGFSQEGDGQTPLYYDLPQYRPFWGEVEKLDVPFYLHPRNPLPQDSRIYDGHPWLLGPTWAFAQETAVHALRLMASGLFDEHPRLNIILGHMGEGLPYMMWRIDHRVAWVKLPPRYPAKRRFMDYFNENFHITTSGNFRTQTLIDAILEIGADRILFSTDWPFENIDHASDWFNATSIAEADRVKIGRTNARRLFKLDGA
modifications: Dicamba decarboxylase variant clone S03902153
B2: 126 (protein)
chain: B1 chain with V84F, W229Y, V235I, S298A
modifications: Dicamba decarboxylase variant clone S03970792

Experiments:
[1] = Enzyme kinetic characterization (kcat, KM, kcat/KM) of dicamba decarboxylase variants (Table 9)
[2] = 14C assay: 14CO2 capture from [14C]-carboxyl-labeled dicamba with IPTG-induced recombinant E. coli cells; conditions: dicamba decarboxylation activity

Row | Molecule | protein kinetic activity (substrate concentration versus reaction velocity) over SEQ ID NO:109 ([1]; FIG. 6) | Enzymatic Detection level [2] | kcat ([1]; substrate dicamba, purified protein)
1 | B1 | improvement | High | –
2 | B2 | – | High | 0.03967 s⁻¹
